Article PMC4980022
Several values for one entry are separate records, joined by “and”; a condition that tells them apart may be missing. Equal entries are not always repeated.

Experiments:
[1] = molecular target: PorK lipoprotein (Porphyromonas gingivalis W50 (endogenous in W50ABK*WbaP)); test: high sensitivity amino acid analysis of the bands; purified PorK/N complex separated on SDS-PAGE, transferred to PVDF, PorK and PorN bands excised
[2] = molecular target: PorN (Porphyromonas gingivalis W50 (endogenous in W50ABK*WbaP)); test: negative-stain electron microscopy and electron tomography; purified PorK/N complex (fraction 6 of the CsCl gradient) stained with uranyl acetate
[3] = molecular target: PorK lipoprotein (Porphyromonas gingivalis W50 (endogenous in W50ABK*WbaP)); test: densitometry of Coomassie stained gels; purified PorK/N complex on SDS-PAGE; PorK band against the combined PorN bands
[4] = molecular target: PorK lipoprotein (Porphyromonas gingivalis W50 (endogenous in W50ABK*WbaP)); test: negative-stain electron microscopy and electron tomography; purified PorK/N complex (fraction 6 of the CsCl gradient) stained with uranyl acetate

| Substance | stoichiometry N (PorN per PorK) [1] | stoichiometry N [2] | stoichiometry N (PorN per PorK) [3] | stoichiometry N [4] |
| --- | --- | --- | --- | --- |
| PorN (natural protein) | 1.2 | 32 to 36 subunits | 1 and 1.2 | – |
| PorK lipoprotein (natural protein) | – | – | – | 32 to 36 subunits |
